Holding throughout (assay): SPR; BIAcore X100; biotinylated Avi-tagged TβRI or TβRII captured on neutravidin-coupled CM-5 chip (max 150 RU); full-length TGM injected as twofold dilution series; HBS-EP, 25 mM HEPES, 150 mM NaCl, 0.005% P20, pH 7.4; 100 µL/min; 1:1 kinetic model
(Surface plasmon resonance follows binding to a sensor surface in real time, without labels.)

Experiment [1] deals with Biotinylated Avi-tagged human TβRI extracellular domain (human) (UniProt P36897).
Experiment [2] has the same target. The source holds these as a separate data set.
For experiment [3], the target named is Biotinylated Avi-tagged human TβRII extracellular domain (human) (UniProt P37173).
Chain of Biotinylated Avi-tagged human TβRII extracellular domain (human) (P37173 23-166): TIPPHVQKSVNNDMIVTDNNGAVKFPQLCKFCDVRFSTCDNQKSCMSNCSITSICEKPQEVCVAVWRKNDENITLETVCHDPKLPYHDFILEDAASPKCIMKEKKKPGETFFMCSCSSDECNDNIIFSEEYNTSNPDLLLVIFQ

The values that follow come from paper PMC11723922.

Read-outs that look alike come from different tables or passages of the source.

Chain of Biotinylated Avi-tagged human TβRI extracellular domain (human) (P36897 34-126): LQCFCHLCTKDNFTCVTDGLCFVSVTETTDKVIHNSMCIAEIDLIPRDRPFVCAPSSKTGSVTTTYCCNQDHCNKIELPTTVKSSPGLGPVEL

In general, Kd refers to the free concentration of one partner at which half of the binding sites on the other are occupied at equilibrium, for simple one-to-one binding. Read a low Kd as a tighter complex. “TGM4 full-length (D1-5), recombinant (natural protein)”: the results for the Kd in experiment [1], in experiment [2] and in experiment [3] were 3 to 5 nM, 5 nM and 116000 nM, respectively.
“TGM1 full-length (D1-5), recombinant (natural protein)” showed a Kd in experiment [2] of 90 nM.
